In patent publication US20260071199A1 (JENTHERA THERAPEUTICS, published 2026):

B1: modified nuclease Zero (other)
chain: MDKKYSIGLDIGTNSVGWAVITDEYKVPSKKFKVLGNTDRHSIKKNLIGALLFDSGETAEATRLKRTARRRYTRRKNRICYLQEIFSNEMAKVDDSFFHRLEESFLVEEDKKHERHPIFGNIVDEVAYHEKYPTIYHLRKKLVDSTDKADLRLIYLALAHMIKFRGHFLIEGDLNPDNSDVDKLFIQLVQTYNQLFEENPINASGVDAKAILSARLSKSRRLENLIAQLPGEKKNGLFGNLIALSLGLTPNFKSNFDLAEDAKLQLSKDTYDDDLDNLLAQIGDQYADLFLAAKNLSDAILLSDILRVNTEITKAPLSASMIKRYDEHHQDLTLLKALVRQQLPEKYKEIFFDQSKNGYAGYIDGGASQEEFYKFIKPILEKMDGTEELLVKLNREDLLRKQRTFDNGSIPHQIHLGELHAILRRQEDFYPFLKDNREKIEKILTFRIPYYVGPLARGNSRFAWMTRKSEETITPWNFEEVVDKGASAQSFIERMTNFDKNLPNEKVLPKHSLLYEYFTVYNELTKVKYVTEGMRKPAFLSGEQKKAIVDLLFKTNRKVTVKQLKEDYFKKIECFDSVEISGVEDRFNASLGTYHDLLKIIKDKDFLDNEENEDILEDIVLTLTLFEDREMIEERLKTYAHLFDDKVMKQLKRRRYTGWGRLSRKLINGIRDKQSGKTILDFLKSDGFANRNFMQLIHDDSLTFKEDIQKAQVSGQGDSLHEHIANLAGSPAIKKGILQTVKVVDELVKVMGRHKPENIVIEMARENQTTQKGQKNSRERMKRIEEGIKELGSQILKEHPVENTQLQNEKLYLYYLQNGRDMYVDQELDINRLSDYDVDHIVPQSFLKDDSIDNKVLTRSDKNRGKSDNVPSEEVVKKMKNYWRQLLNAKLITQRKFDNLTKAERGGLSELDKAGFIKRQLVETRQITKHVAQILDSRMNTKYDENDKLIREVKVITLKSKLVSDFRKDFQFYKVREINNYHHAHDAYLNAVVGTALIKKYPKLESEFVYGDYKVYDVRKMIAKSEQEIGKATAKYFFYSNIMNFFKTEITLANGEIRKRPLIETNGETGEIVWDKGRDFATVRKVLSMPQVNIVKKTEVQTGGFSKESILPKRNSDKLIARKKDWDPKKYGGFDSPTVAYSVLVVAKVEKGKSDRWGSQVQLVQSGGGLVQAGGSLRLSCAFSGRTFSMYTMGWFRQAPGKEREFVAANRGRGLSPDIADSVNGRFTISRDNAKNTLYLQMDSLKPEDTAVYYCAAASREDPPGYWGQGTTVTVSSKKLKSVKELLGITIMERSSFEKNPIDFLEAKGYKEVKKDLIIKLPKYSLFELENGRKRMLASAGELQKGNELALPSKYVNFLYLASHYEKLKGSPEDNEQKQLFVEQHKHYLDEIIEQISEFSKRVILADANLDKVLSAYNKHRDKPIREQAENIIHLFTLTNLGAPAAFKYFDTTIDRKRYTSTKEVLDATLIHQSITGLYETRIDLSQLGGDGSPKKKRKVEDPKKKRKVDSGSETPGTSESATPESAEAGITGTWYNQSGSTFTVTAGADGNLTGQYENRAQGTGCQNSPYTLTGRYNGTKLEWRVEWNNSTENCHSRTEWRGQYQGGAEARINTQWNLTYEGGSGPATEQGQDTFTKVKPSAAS
B2: modified nuclease L1 (other)
chain: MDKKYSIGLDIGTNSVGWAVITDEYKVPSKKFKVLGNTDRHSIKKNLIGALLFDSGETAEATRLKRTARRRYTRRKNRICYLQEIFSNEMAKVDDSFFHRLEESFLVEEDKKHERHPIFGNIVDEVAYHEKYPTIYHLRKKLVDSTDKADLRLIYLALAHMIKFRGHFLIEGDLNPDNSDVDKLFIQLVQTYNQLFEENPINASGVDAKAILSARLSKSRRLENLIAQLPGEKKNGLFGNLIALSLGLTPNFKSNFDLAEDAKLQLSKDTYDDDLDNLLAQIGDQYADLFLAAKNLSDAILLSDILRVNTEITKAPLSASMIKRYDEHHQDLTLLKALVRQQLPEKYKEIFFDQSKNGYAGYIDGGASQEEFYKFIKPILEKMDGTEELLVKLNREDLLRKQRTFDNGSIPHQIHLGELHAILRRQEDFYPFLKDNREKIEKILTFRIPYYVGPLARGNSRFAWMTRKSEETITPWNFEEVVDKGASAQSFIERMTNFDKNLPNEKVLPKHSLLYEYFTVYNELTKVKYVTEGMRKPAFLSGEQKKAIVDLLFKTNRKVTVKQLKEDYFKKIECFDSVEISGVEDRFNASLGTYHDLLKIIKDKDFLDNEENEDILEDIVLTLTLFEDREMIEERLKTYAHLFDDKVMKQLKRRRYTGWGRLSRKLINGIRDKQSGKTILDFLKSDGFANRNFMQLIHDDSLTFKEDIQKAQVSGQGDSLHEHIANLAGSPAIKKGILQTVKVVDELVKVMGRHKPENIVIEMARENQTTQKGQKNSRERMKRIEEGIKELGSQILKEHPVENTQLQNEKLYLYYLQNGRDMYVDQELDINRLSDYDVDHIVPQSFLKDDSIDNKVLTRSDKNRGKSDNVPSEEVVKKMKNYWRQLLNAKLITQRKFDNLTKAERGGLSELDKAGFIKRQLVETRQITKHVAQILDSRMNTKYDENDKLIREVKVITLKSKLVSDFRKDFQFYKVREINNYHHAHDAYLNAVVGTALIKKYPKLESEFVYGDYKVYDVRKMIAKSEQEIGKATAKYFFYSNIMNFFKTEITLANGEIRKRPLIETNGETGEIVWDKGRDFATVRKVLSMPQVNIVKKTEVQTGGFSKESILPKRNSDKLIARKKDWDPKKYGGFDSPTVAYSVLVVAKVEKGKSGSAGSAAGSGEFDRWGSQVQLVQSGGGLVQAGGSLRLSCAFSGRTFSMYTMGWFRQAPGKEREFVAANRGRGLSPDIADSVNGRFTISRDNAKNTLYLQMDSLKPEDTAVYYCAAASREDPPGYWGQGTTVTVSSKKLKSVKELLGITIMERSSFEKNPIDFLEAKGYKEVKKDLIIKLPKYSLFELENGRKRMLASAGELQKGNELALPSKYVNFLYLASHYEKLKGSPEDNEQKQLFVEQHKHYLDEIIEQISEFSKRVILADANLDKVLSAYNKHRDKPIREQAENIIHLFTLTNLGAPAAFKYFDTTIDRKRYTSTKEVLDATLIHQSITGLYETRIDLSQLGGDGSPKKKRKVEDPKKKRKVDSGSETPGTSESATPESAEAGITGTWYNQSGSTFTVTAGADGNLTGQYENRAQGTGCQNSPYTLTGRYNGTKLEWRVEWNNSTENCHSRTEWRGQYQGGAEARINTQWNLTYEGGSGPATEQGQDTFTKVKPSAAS
B3: modified nuclease L2 (other)
chain: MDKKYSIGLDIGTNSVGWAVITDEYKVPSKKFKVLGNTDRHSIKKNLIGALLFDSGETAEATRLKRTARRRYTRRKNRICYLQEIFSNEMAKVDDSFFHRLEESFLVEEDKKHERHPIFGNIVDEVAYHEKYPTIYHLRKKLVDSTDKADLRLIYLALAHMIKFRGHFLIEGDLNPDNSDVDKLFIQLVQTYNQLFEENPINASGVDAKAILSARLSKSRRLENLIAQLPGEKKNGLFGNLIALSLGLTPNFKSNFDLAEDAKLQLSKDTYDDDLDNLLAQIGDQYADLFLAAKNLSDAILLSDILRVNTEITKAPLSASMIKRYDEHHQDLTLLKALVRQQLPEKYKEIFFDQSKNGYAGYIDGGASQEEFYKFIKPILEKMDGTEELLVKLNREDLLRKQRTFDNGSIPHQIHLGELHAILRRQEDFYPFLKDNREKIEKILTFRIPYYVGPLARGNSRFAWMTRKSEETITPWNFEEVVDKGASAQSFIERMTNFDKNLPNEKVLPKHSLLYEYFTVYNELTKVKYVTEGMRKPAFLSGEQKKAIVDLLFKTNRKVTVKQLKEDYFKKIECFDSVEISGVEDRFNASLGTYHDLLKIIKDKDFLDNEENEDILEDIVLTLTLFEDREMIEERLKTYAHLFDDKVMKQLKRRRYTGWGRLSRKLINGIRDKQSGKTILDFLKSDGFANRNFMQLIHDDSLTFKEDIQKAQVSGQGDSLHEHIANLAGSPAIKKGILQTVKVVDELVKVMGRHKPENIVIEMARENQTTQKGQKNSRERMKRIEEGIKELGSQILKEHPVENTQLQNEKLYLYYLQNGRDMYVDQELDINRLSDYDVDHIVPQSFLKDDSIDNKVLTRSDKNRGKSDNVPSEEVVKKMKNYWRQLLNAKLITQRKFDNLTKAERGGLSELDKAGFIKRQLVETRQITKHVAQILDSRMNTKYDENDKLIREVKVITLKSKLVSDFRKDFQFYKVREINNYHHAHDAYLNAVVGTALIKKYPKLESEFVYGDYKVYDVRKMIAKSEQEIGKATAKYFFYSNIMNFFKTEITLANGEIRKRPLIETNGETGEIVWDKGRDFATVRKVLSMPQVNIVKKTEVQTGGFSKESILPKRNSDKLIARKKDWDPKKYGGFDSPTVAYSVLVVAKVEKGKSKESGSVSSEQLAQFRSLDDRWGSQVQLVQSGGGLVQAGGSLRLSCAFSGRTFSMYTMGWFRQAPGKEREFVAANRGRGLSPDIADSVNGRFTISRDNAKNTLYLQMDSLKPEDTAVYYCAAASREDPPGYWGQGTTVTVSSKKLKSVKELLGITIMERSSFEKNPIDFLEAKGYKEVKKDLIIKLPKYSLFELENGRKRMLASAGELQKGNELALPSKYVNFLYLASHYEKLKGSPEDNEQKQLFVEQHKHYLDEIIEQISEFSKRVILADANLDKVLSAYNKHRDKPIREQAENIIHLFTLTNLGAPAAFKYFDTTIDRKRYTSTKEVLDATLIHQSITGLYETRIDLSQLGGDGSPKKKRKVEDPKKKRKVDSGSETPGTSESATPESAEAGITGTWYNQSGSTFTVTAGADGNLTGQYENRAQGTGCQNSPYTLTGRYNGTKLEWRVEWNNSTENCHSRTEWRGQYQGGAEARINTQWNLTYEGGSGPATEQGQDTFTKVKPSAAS

Target: T1, CD4 on CD4+ T cells (Jurkat CD4+ T cells; human primary CD4+ T cells) (human, UniProt P01730 26-458)
T1 construct: whole, on cells; also called CD4 receptor
Assay: flow cytometry, TAMRA-labelled nuclease, 1 h on Jurkat CD4+ T cells

Binder | delivery (percent of cells TAMRA-positive) [%]
B1 | > 99
B2 | > 99
B3 | > 99
